Results published in the supplement of paper PMC10065799, “High-throughput profiling of sequence recognition by tyrosine kinases and SH2 domains using bacterial peptide display” (eLife, 2023).
One block for each sequence: values may come before it.

How the values were obtained:
[1] = target: Fyn (UniProt P06241); assay: phosphorylation enrichment, bacterial display (enrichment ratio); higher = better substrate or ligand; peptides without Tyr show the background
[2] = test system: Fer (mouse); assay: as above
[3] = target: MERTK (UniProt Q12866); assay: as above
Chain of MERTK (Q12866 whole entry, looked up): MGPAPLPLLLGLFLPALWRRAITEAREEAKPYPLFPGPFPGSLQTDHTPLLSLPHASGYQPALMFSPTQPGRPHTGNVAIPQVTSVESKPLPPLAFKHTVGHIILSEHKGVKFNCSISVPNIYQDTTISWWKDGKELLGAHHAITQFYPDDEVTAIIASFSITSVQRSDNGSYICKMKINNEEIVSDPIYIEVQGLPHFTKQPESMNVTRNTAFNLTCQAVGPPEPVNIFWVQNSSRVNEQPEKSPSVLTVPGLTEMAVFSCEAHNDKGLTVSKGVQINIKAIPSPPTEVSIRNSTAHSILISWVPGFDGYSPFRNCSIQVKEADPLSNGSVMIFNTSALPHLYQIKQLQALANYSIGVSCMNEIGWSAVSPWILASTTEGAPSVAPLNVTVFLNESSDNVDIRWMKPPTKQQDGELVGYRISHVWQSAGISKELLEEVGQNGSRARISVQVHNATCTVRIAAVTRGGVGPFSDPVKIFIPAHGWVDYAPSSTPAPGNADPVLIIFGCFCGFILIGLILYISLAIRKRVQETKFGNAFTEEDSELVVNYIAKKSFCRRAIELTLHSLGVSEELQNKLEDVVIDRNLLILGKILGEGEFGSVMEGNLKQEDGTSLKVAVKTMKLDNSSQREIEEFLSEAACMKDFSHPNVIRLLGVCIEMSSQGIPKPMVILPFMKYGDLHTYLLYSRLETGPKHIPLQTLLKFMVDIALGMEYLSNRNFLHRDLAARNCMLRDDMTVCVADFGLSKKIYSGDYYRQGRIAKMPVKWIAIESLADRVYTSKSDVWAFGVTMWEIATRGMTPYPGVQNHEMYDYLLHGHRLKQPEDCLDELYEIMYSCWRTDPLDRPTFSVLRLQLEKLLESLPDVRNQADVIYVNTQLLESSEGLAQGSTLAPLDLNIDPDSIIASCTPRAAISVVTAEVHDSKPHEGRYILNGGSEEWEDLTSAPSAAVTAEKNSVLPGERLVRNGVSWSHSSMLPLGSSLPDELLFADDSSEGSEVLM

[4] = target: Fes (UniProt P07332); assay: as above
Chain of Fes (P07332 whole entry, looked up): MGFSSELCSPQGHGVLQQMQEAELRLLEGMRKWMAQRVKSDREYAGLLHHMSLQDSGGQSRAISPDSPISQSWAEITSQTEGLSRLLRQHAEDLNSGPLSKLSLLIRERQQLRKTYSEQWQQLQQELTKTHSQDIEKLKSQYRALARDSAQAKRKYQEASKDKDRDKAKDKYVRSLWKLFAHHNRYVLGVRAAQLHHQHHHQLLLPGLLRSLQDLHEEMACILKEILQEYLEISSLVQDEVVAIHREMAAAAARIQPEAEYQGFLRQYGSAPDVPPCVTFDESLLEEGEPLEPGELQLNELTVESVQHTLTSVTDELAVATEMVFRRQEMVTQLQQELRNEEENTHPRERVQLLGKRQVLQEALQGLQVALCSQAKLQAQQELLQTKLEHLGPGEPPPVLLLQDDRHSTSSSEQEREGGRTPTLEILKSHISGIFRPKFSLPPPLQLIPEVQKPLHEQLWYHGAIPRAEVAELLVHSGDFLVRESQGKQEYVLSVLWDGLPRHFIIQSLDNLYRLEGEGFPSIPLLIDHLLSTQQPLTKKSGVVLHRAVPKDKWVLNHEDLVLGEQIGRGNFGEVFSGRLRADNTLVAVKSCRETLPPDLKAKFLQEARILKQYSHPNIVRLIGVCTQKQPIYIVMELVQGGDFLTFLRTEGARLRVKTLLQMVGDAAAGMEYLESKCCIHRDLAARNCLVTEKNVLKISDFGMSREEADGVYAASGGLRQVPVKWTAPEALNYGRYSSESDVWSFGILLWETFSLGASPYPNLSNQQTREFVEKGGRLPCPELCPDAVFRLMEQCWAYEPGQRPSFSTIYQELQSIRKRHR

[5] = target: FGFR3 (UniProt P22607); assay: as above
Chain of FGFR3 (P22607 whole entry, looked up): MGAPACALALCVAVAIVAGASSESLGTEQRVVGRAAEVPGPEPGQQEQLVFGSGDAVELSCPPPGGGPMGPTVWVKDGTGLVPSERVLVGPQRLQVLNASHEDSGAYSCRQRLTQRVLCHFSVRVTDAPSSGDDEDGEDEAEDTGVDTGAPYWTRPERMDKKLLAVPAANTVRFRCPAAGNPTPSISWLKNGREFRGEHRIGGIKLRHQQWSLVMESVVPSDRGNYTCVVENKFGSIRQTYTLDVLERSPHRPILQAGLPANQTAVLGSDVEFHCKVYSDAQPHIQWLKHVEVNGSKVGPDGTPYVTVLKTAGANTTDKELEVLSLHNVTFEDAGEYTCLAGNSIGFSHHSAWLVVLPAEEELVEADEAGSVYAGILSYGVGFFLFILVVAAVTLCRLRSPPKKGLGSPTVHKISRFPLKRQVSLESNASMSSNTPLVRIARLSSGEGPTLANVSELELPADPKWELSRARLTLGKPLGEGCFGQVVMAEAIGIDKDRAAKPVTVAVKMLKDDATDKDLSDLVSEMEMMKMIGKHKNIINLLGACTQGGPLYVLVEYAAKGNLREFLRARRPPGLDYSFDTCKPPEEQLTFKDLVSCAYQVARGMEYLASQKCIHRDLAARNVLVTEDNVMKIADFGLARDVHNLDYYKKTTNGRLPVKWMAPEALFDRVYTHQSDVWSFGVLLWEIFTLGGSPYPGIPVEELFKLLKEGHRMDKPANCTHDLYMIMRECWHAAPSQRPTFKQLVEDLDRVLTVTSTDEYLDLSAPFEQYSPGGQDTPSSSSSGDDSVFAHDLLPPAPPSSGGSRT

[6] = test system: c-Abl (mouse); assay: as above
[7] = test system: AncSZ; assay: as above
[8] = target: EPHB2 (UniProt P29323); assay: as above
[9] = target: Jak2 (UniProt O60674); assay: as above
[10] = target: Hck (UniProt P08631); assay: as above
Chain of Hck (P08631 whole entry, looked up): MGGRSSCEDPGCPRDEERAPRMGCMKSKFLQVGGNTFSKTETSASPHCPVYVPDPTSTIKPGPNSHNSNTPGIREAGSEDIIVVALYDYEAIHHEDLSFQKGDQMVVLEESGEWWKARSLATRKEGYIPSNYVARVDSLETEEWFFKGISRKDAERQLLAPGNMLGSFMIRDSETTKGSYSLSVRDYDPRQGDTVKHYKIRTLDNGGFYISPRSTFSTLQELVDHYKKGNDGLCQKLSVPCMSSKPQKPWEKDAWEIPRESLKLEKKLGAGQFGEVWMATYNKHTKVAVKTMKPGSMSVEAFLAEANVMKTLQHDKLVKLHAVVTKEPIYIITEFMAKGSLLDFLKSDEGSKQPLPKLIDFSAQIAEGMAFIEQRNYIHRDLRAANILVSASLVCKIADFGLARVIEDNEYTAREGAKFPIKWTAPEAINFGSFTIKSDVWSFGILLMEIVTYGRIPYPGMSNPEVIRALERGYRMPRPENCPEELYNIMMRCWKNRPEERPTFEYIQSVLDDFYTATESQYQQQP

[11] = target: FGFR1 (UniProt P11362); assay: as above
[12] = test system: c-Src; assay: as above
[13] = target: EPHB1 (UniProt P54762); assay: as above
Chain of EPHB1 (P54762 whole entry, looked up): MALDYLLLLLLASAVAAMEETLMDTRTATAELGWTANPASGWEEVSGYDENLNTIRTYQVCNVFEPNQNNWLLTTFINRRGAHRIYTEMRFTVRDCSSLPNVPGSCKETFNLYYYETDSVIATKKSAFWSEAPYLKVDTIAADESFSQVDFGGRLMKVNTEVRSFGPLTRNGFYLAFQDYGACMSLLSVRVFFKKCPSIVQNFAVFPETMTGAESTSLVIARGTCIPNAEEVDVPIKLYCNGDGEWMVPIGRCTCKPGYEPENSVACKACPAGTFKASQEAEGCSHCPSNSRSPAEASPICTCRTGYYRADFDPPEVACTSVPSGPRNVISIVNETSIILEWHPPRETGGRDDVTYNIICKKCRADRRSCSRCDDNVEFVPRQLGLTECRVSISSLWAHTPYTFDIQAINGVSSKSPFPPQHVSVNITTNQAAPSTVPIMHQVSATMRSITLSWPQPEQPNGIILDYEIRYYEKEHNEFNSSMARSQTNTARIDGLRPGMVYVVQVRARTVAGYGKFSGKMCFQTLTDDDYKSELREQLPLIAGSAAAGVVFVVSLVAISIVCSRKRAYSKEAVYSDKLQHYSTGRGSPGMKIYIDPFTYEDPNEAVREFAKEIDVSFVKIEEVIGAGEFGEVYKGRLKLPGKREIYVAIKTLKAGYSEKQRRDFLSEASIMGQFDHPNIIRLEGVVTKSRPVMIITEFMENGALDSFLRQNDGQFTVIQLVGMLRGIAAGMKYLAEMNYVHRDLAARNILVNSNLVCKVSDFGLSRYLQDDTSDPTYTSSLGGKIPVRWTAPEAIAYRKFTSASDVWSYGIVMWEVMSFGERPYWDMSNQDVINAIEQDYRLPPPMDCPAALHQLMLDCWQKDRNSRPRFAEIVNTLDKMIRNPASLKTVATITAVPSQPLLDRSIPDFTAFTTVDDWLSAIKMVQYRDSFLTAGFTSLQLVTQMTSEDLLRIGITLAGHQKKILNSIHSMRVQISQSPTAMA

[14] = target: SHP2-C SH2; assay: SH2 binding enrichment of the phosphorylated peptide, bacterial display (enrichment ratio); higher = better substrate or ligand; peptides without Tyr show the background
[15] = target: c-Src SH2; assay: as above
[16] = target: Grb2 SH2 (UniProt P62993); assay: as above
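For SH2 binding enrichment of the phosphorylated peptide, bacterial display in this document: peptide library displayed on the E. coli surface as eCPX fusions, selected cells deep-sequenced, score is each peptide's frequency after selection divided by its frequency in the input.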
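For phosphorylation enrichment, bacterial display in this document: 11-residue human phosphosite peptides and single-mutation variants displayed on the E. coli surface, counted by deep sequencing, each peptide's frequency after selection divided by its frequency in the unselected input library; frequency after pTyr selection over input frequency; kinase dosed for 20-30% of maximal phosphorylation in three min.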

Chain of Fyn (P06241 whole entry, looked up): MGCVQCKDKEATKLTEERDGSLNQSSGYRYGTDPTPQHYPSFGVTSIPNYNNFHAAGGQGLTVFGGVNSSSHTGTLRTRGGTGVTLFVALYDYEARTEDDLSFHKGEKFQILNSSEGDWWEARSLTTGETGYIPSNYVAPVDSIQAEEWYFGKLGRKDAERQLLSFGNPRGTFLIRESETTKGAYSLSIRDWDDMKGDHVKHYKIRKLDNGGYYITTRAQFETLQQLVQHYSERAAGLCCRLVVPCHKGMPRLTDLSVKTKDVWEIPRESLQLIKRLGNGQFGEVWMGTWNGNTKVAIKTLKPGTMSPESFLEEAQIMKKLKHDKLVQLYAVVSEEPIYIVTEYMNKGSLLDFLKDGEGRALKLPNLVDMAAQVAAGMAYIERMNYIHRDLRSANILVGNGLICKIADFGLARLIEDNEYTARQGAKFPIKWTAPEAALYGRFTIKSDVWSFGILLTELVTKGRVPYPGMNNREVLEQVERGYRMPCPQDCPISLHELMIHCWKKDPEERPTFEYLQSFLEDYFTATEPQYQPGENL

SH2 binding enrichment [14]: 0.738
SH2 binding enrichment [15]: 0.58
SH2 binding enrichment [16]: 0.982
Sequence: NVQIVYKPVDL [MAPT_Y627_S622N]
phosphorylation enrichment [1]: 0.414
phosphorylation enrichment [2]: 0.502
phosphorylation enrichment [3]: 0.354
phosphorylation enrichment [4]: 0.903
phosphorylation enrichment [5]: 0.648
phosphorylation enrichment [6]: 0.723
phosphorylation enrichment [7]: 0.955
phosphorylation enrichment [8]: 0.492
phosphorylation enrichment [9]: 0.796
phosphorylation enrichment [10]: 0.477
phosphorylation enrichment [11]: 0.532
phosphorylation enrichment [12]: 0.415
phosphorylation enrichment [13]: 0.507

SH2 binding enrichment [14]: 0.72
SH2 binding enrichment [15]: 0.632
SH2 binding enrichment [16]: 0.746
Sequence: CERLPYDASKW [FLT1_Y815]
phosphorylation enrichment [1]: 0.45
phosphorylation enrichment [2]: 0.49
phosphorylation enrichment [3]: 0.409
phosphorylation enrichment [4]: 1.13
phosphorylation enrichment [5]: 0.688
phosphorylation enrichment [6]: 0.824
phosphorylation enrichment [7]: 0.951
phosphorylation enrichment [8]: 0.46
phosphorylation enrichment [9]: 1.01
phosphorylation enrichment [10]: 0.525
phosphorylation enrichment [11]: 0.523
phosphorylation enrichment [12]: 0.464
phosphorylation enrichment [13]: 0.589

SH2 binding enrichment [14]: 0.959
SH2 binding enrichment [15]: 0.894
SH2 binding enrichment [16]: 1.1
Sequence: SFMVRYNQPRV [GRIN2D_Y736_YF]
phosphorylation enrichment [1]: 0.446
phosphorylation enrichment [2]: 0.423
phosphorylation enrichment [3]: 0.389
phosphorylation enrichment [4]: 0.954
phosphorylation enrichment [5]: 0.57
phosphorylation enrichment [6]: 0.582
phosphorylation enrichment [7]: 0.832
phosphorylation enrichment [8]: 0.698
phosphorylation enrichment [9]: 0.685
phosphorylation enrichment [10]: 0.505
phosphorylation enrichment [11]: 0.473
phosphorylation enrichment [12]: 0.398
phosphorylation enrichment [13]: 0.557

SH2 binding enrichment [14]: 0.885
SH2 binding enrichment [15]: 0.564
SH2 binding enrichment [16]: 0.911
Sequence: LTTEVYFPSIK [C5orf64_Y60_A57T]
phosphorylation enrichment [1]: 0.77
phosphorylation enrichment [2]: 0.482
phosphorylation enrichment [3]: 0.562
phosphorylation enrichment [4]: 0.895
phosphorylation enrichment [5]: 0.661
phosphorylation enrichment [6]: 0.766
phosphorylation enrichment [7]: 0.946
phosphorylation enrichment [8]: 0.628
phosphorylation enrichment [9]: 0.703
phosphorylation enrichment [10]: 0.541
phosphorylation enrichment [11]: 0.775
phosphorylation enrichment [12]: 0.563
phosphorylation enrichment [13]: 0.436

SH2 binding enrichment [14]: 0.881
SH2 binding enrichment [15]: 1.11
SH2 binding enrichment [16]: 0.623
Sequence: ETSHNYHKFDS [MATR3_Y243]
phosphorylation enrichment [1]: 0.401
phosphorylation enrichment [2]: 0.372
phosphorylation enrichment [3]: 0.393
phosphorylation enrichment [4]: 0.551
phosphorylation enrichment [5]: 0.475
phosphorylation enrichment [6]: 0.61
phosphorylation enrichment [7]: 0.463
phosphorylation enrichment [8]: 0.451
phosphorylation enrichment [9]: 0.662
phosphorylation enrichment [10]: 0.395
phosphorylation enrichment [11]: 0.393
phosphorylation enrichment [12]: 0.475
phosphorylation enrichment [13]: 0.416

SH2 binding enrichment [14]: 1.1
SH2 binding enrichment [15]: 4.71
SH2 binding enrichment [16]: 1.15
Sequence: KGIQLYDTPYE [SHB_Y297]
phosphorylation enrichment [1]: 0.891
phosphorylation enrichment [2]: 3.26
phosphorylation enrichment [3]: 5.25
phosphorylation enrichment [4]: 1.04
phosphorylation enrichment [5]: 0.695
phosphorylation enrichment [6]: 1.13
phosphorylation enrichment [7]: 1.5
phosphorylation enrichment [8]: 15.6
phosphorylation enrichment [9]: 1.13
phosphorylation enrichment [10]: 1.84
phosphorylation enrichment [11]: 0.564
phosphorylation enrichment [12]: 1.24
phosphorylation enrichment [13]: 11.3

SH2 binding enrichment [14]: 1.33
SH2 binding enrichment [15]: 0.478
SH2 binding enrichment [16]: 0.39
Sequence: PIPAAYNKYDQ [CDC73_Y290_R292K]
phosphorylation enrichment [1]: 0.46
phosphorylation enrichment [2]: 0.394
phosphorylation enrichment [3]: 0.617
phosphorylation enrichment [4]: 0.904
phosphorylation enrichment [5]: 0.448
phosphorylation enrichment [6]: 0.944
phosphorylation enrichment [7]: 0.707
phosphorylation enrichment [8]: 0.599
phosphorylation enrichment [9]: 0.754
phosphorylation enrichment [10]: 0.595
phosphorylation enrichment [11]: 0.608
phosphorylation enrichment [12]: 0.689
phosphorylation enrichment [13]: 0.417

SH2 binding enrichment [14]: 0.436
SH2 binding enrichment [15]: 0.522
SH2 binding enrichment [16]: 0.762
Sequence: EKKKKYMLPLD [DNM2_Y563_E560K]
phosphorylation enrichment [1]: 0.604
phosphorylation enrichment [2]: 0.502
phosphorylation enrichment [3]: 0.504
phosphorylation enrichment [4]: 0.951
phosphorylation enrichment [5]: 0.506
phosphorylation enrichment [6]: 0.691
phosphorylation enrichment [7]: 0.594
phosphorylation enrichment [8]: 0.469
phosphorylation enrichment [9]: 0.567
phosphorylation enrichment [10]: 0.452
phosphorylation enrichment [11]: 0.5
phosphorylation enrichment [12]: 0.496
phosphorylation enrichment [13]: 0.52

SH2 binding enrichment [14]: 0.635
SH2 binding enrichment [15]: 0.612
SH2 binding enrichment [16]: 0.992
Sequence: FLTQHYDAEPQ [ANG_Y38_K41E]
phosphorylation enrichment [1]: 0.478
phosphorylation enrichment [2]: 0.511
phosphorylation enrichment [3]: 0.502
phosphorylation enrichment [4]: 0.989
phosphorylation enrichment [5]: 0.684
phosphorylation enrichment [6]: 0.785
phosphorylation enrichment [7]: 0.853
phosphorylation enrichment [8]: 0.554
phosphorylation enrichment [9]: 0.627
phosphorylation enrichment [10]: 0.534
phosphorylation enrichment [11]: 0.583
phosphorylation enrichment [12]: 0.601
phosphorylation enrichment [13]: 0.413

Further lines, the sequence ahead of its results:

Sequence: YALAEYTEVKT [ALDH1A3_Y497]
phosphorylation enrichment [1]: 0.572
phosphorylation enrichment [2]: 1.31
phosphorylation enrichment [3]: 0.652
phosphorylation enrichment [4]: 0.901
phosphorylation enrichment [5]: 1.25
phosphorylation enrichment [6]: 0.614
phosphorylation enrichment [7]: 1.29
phosphorylation enrichment [8]: 0.719
phosphorylation enrichment [9]: 0.812
phosphorylation enrichment [10]: 0.724
phosphorylation enrichment [11]: 1.73
phosphorylation enrichment [12]: 0.658
phosphorylation enrichment [13]: 0.651
SH2 binding enrichment [14]: 4.27
SH2 binding enrichment [15]: 5.59
SH2 binding enrichment [16]: 0.66

Sequence: KGELRYMHSPV [ABCD1_Y281_R285P]
phosphorylation enrichment [1]: 0.328
phosphorylation enrichment [2]: 0.315
phosphorylation enrichment [3]: 0.406
phosphorylation enrichment [4]: 0.674
phosphorylation enrichment [5]: 0.458
phosphorylation enrichment [6]: 0.527
phosphorylation enrichment [7]: 0.481
phosphorylation enrichment [8]: 0.367
phosphorylation enrichment [9]: 0.619
phosphorylation enrichment [10]: 0.345
phosphorylation enrichment [11]: 0.364
phosphorylation enrichment [12]: 0.365
phosphorylation enrichment [13]: 0.393
SH2 binding enrichment [14]: 0.58
SH2 binding enrichment [15]: 0.533
SH2 binding enrichment [16]: 0.931

Sequence: RLMLQYDAVVN [SLC25A32_Y152]
phosphorylation enrichment [1]: 0.57
phosphorylation enrichment [2]: 0.662
phosphorylation enrichment [3]: 0.414
phosphorylation enrichment [4]: 1.67
phosphorylation enrichment [5]: 0.674
phosphorylation enrichment [6]: 0.685
phosphorylation enrichment [7]: 1.32
phosphorylation enrichment [8]: 0.703
phosphorylation enrichment [9]: 1.13
phosphorylation enrichment [10]: 0.702
phosphorylation enrichment [11]: 0.47
phosphorylation enrichment [12]: 0.406
phosphorylation enrichment [13]: 0.733
SH2 binding enrichment [14]: 0.863
SH2 binding enrichment [15]: 1.88
SH2 binding enrichment [16]: 1.02

Sequence: FYNSEYGELSE [FLT4_Y1337]
phosphorylation enrichment [1]: 1.59
phosphorylation enrichment [2]: 0.684
phosphorylation enrichment [3]: 0.589
phosphorylation enrichment [4]: 1.36
phosphorylation enrichment [5]: 0.932
phosphorylation enrichment [6]: 0.986
phosphorylation enrichment [7]: 1.47
phosphorylation enrichment [8]: 0.956
phosphorylation enrichment [9]: 1.58
phosphorylation enrichment [10]: 0.997
phosphorylation enrichment [11]: 0.628
phosphorylation enrichment [12]: 1.69
phosphorylation enrichment [13]: 0.729
SH2 binding enrichment [14]: 0.805
SH2 binding enrichment [15]: 0.748
SH2 binding enrichment [16]: 0.886

Sequence: TGVRDYIHVVD [GALE_Y241]
phosphorylation enrichment [1]: 0.426
phosphorylation enrichment [2]: 0.413
phosphorylation enrichment [3]: 0.331
phosphorylation enrichment [4]: 1.01
phosphorylation enrichment [5]: 0.593
phosphorylation enrichment [6]: 0.586
phosphorylation enrichment [7]: 0.846
phosphorylation enrichment [8]: 0.531
phosphorylation enrichment [9]: 0.71
phosphorylation enrichment [10]: 0.493
phosphorylation enrichment [11]: 0.587
phosphorylation enrichment [12]: 0.381
phosphorylation enrichment [13]: 0.499
SH2 binding enrichment [14]: 0.658
SH2 binding enrichment [15]: 0.549
SH2 binding enrichment [16]: 0.81

Sequence: NGLVACKDGKL [PMM2_Y76_Y76C]
phosphorylation enrichment [1]: 0.416
phosphorylation enrichment [2]: 0.419
phosphorylation enrichment [3]: 0.367
phosphorylation enrichment [4]: 0.43
phosphorylation enrichment [5]: 0.484
phosphorylation enrichment [6]: 0.401
phosphorylation enrichment [7]: 0.486
phosphorylation enrichment [8]: 0.524
phosphorylation enrichment [9]: 0.435
phosphorylation enrichment [10]: 0.401
phosphorylation enrichment [11]: 0.392
phosphorylation enrichment [12]: 0.387
phosphorylation enrichment [13]: 0.397
SH2 binding enrichment [14]: 0.893
SH2 binding enrichment [15]: 0.541
SH2 binding enrichment [16]: 0.969

Sequence: TDIVAYSGRVQ [SPTBN2_Y477]
phosphorylation enrichment [1]: 1.05
phosphorylation enrichment [2]: 0.264
phosphorylation enrichment [3]: 0.885
phosphorylation enrichment [4]: 0.196
phosphorylation enrichment [5]: 1.05
phosphorylation enrichment [6]: 1.13
phosphorylation enrichment [7]: 0.857
phosphorylation enrichment [8]: 2.04
phosphorylation enrichment [9]: 1.48
phosphorylation enrichment [10]: 0.407
phosphorylation enrichment [11]: 0.214
phosphorylation enrichment [12]: 1.05
phosphorylation enrichment [13]: 0.369
